Results: patent US20240092937A1 (HUMMINGBIRD BIOSCIENCE HOLDINGS PTE, published 2024)
Blank lines part the entries; values can stand above or below the molecule they belong to.

What was measured:
[1] = target: human HER3 expressed on cells (human) (UniProt P21860); experiment: flow cytometry, HEK293 cells overexpressing human HER3, 20 ug/ml antibody, FITC anti-Fc secondary; isotype on WT HEK293: 0.07
[2] = target: human HER3 expressed on cells (human) (UniProt P21860); experiment: flow cytometry, HEK293 cells overexpressing human HER3, 20 ug/ml antibody, FITC anti-Fc secondary; same antibody on WT HEK293: 8.15
[3] = target: His-tagged FcγRIIIa (V158) (UniProt P08637); experiment: Bio-Layer Interferometry, determined as described in Example 7; receptor row FcgRIIIA (V158)
[4] = target: human HER3 expressed on cells (human) (UniProt P21860); experiment: flow cytometry, HEK293 cells overexpressing human HER3, 20 ug/ml antibody, FITC anti-Fc secondary; same antibody on WT HEK293: 1.91
[5] = target: human HER3 expressed on cells (human) (UniProt P21860); experiment: flow cytometry on HEK293T HER3 O/E cells, '10 ug' antibody as printed (10 µg/ml by paragraph 872), FITC anti-Fc secondary
[6] = target: human HER4 expressed on HEK293 cells (human) (UniProt Q15303); experiment: flow cytometry on HEK293 HER4 overexpressing cells, 10 µg/ml antibody
FcgRIIIA (F158) (human) = FcgRIIIA (F158) (human) (UniProt P08637); experiment: Bio-Layer Interferometry, determined as described in Example 7
FcRn (human) = FcRn (human) (UniProt P55899); experiment: as above
moFcgRIV (mouse) = experiment: as above
moFcRn (mouse) = target: T1, moFcRn (mouse) (UniProt Q61559); experiment: as above
T1 sequence (receptor, looked up): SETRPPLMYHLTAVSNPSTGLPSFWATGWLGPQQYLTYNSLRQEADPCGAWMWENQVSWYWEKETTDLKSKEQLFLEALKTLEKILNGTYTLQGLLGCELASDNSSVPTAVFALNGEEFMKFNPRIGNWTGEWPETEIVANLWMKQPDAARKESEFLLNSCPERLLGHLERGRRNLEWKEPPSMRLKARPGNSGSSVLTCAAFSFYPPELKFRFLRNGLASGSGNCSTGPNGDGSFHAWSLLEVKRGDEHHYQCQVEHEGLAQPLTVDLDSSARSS
T1 sequence (looked up): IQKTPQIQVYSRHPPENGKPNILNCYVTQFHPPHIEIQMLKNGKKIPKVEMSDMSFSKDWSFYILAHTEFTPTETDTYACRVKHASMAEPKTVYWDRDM

[7] = target: human HER3 polypeptide, recombinant (His-tagged human HER3) (human) (UniProt P21860); experiment: plate ELISA dimerisation assay: human EGFR-His coated, HER3-biotin 4 µg/ml and NRG 0.1 µg/ml constant, antibody titrated; blocked interaction EGFR:HER3
[8] = target: human HER3 polypeptide, recombinant (His-tagged human HER3) (human) (UniProt P21860); experiment: BLI (Octet QK384), His-tagged human HER3 on anti-Penta-HIS tips, saturating antibody LJM-716 (400 nM), then competing antibody MM-121 (300 nM)
FcgRIIA (R167) (human) = experiment: Bio-Layer Interferometry, determined as described in Example 7
FcgRIIA (H167) (human) = experiment: as above
FcgRIIB (human) = experiment: as above
[9] = target: human HER2 polypeptide, recombinant (His-tagged HER2 protein) (human, UniProt P04626 23-652); experiment: ELISA, plate coated with 0.1 ug/ml target polypeptide, antibody serially diluted
Experimental: (§1) ELISAs were used to determine the binding specificity of the antibodies. […] The antibodies were also analysed for their ability to bind to human EGFR and human HER2 (Sino Biological Inc., China).
(§2) ELISAs were carried out according to standard protocols. Briefly, 96-well plates (Nunc, Denmark) were coated with 0.1 μg/ml of target polypeptide in phosphate-buffered saline (PBS) for 16 h at 4° C. After blocking for 1 h with 1% BSA in Tris buffer saline (TBS) at room temperature, the anti-HER3 antibody was serially diluted with the highest concentration being 10 μg/ml, and added to the plate. Post 1 h incubation at room temperature, plates were washed three times with TBS containing 0.05% Tween 20 (TBS-T) and were then incubated with a HRP-conjugated […] antibody (Life Technologies, Inc., USA) for 1 h at room temperature. After washing, plates were developed with colorimetric detection substrate 3,3′,5,5′-tetramethylbenzidine (Turbo-TMB; Pierce, USA) for 10 min.

rat HER3 polypeptide = target: T2, rat HER3 polypeptide (rat, UniProt Q62799 20-643, limits assumed); experiment: as above
T2 construct: also called R. norvegicus HER3 homologue
Experimental: as §1, §2

mouse HER3 polypeptide = target: T3, mouse HER3 polypeptide (mouse, UniProt Q61526 20-641); experiment: as above
T3 construct: also called M. musculus HER3 homologue
Experimental: as §1, §2

[10] = target: T4, human EGFR polypeptide, recombinant (human, UniProt P00533 25-645); experiment: as above
T4 construct: also called human HER1 (EGFR); human EGFR-His
Experimental: as §1, §2

[11] = target: T5, human HER3 polypeptide, recombinant (His-tagged human HER3) (human, UniProt P21860 20-643, biotinylated in the assays of paragraph 766 and paragraph 908); experiment: ELISA on human HER3 polypeptide coated at 0.1 ug/ml
T5 construct: Bought protein (Sino Biological for the ELISAs); also called HER3 His; HER3-biotin

FcgRIIB (human), sequence (P31994 43-217): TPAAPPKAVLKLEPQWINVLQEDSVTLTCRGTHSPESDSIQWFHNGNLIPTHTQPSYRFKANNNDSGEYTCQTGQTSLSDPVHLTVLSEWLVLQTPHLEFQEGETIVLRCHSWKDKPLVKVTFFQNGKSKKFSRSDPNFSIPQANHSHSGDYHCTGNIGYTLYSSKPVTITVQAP
T3 sequence (Q61526 20-641 limits assumed): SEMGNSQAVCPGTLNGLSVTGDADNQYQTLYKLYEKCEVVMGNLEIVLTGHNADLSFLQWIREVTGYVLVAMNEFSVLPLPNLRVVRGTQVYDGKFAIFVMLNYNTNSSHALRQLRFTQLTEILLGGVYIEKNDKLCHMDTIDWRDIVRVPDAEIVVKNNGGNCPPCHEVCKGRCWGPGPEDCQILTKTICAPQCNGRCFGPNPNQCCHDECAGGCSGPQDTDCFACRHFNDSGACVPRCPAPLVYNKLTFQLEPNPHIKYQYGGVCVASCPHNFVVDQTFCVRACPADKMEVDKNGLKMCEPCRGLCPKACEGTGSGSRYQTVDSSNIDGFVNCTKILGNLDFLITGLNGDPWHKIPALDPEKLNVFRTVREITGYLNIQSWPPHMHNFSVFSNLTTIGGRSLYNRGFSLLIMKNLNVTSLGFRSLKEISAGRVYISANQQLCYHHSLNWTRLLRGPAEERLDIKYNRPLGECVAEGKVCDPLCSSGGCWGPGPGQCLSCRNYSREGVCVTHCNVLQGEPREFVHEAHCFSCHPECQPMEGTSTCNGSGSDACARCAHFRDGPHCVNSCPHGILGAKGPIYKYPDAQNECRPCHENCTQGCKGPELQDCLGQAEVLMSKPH
FcgRIIA (H167) (human), sequence (P12318 34-217): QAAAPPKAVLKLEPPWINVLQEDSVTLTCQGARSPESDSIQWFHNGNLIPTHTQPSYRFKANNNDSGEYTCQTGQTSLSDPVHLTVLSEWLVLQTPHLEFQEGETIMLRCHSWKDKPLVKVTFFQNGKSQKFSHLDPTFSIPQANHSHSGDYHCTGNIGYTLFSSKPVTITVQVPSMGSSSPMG
T2 sequence (Q62799 20-643 limits assumed): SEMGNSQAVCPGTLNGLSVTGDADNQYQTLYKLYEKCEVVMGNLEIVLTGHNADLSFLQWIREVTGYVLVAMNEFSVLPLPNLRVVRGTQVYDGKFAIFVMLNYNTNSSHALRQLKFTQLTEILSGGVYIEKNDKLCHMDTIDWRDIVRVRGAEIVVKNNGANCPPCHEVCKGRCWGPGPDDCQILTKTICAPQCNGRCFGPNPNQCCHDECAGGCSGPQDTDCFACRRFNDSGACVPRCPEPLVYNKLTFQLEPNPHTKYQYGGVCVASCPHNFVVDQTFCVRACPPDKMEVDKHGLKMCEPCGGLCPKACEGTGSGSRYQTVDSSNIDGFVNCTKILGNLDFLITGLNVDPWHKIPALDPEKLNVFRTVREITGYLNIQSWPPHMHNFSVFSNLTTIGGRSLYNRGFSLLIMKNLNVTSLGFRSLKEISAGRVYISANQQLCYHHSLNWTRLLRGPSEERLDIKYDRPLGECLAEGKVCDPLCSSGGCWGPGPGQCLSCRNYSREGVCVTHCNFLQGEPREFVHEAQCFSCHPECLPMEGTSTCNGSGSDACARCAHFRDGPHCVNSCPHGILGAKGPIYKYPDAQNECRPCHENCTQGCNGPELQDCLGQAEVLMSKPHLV

% Parent (HER3 positive gate) [5]: 0.18% | % Positive for HER4 [6]: 0.07%
Molecule: hIgG1 Isotype (antibody)

binding result [9]: binds | binding result (rat HER3 polypeptide): binds | binding result (mouse HER3 polypeptide): binds | binding result [10]: binds
B2: anti-HER3 clone 4-35-B4 IgG1 (antibody, V domains shown)
VH: EVQLQQSGAELVKPGASVKLSCTASGFNIKDTYIHWVKQRPDQGLEWIGKIIDPANGNTNYDPKFQGKATITADTSSNTAYLQLSSLSSEDTAVYFCARGLHWGQGTTLTVSS
VL: DIVLTQSPASLAVSLGQRATISCRASKSVSTSGYSYMHWYQQKPGQPPKLLIYLASNLESGVPARFSGSGSGTDFTLNIHPVEEEDAATYYCQHSRELPYTFGGGTKLEIKR
notes: Human IgG1 / kappa chimeric

Second part, the molecule before the results:

Molecule: Isotype (antibody)
% Parent (HER3 positive) [1]: 0.12%

Molecule: anti-HER3 antibody clone LJM716
% Parent (HE3 Positive) [2]: 98.7% | Kd [3]: 705 nM | % Parent (HER3 positive) [4]: 99.5% | % Parent (HER3 positive gate) [5]: 74.4% | % Positive for HER4 [6]: 0.27% | Kd (FcgRIIIA (F158) (human)): 5380 nM | Kd (FcRn (human)): 16.5 nM | Kd (moFcgRIV (mouse)): 701 nM | Kd (moFcRn (mouse)): 12.8 nM

B1: anti-HER3 antibody MM-121 (seribantumab) (antibody, INN chains, looked up, human IgG2)
heavy: EVQLLESGGGLVQPGGSLRLSCAASGFTFSHYVMAWVRQAPGKGLEWVSSISSSGGWTLYADSVKGRFTISRDNSKNTLYLQMNSLRAEDTAVYYCTRGLKMATIFDYWGQGTLVTVSSASTKGPSVFPLAPCSRSTSESTAALGCLVKDYFPEPVTVSWNSGALTSGVHTFPAVLQSSGLYSLSSVVTVPSSNFGTQTYTCNVDHKPSNTKVDKTVERKCCVECPPCPAPPVAGPSVFLFPPKPKDTLMISRTPEVTCVVVDVSHEDPEVQFNWYVDGVEVHNAKTKPREEQFNSTFRVVSVLTVVHQDWLNGKEYKCKVSNKGLPAPIEKTISKTKGQPREPQVYTLPPSREEMTKNQVSLTCLVKGFYPSDIAVEWESNGQPENNYKTTPPMLDSDGSFFLYSKLTVDKSRWQQGNVFSCSVMHEALHNHYTQKSLSLSPG
light: QSALTQPASVSGSPGQSITISCTGTSSDVGSYNVVSWYQQHPGKAPKLIIYEVSQRPSGVSNRFSGSKSGNTASLTISGLQTEDEADYYCCSYAGSSIFVIFGGGTKVTVLGQPKAAPSVTLFPPSSEELQANKATLVCLVSDFYPGAVTVAWKADGSPVKVGVETTKPSKQSNNKYAASSYLSLTPEQWKSHRSYSCRVTHEGSTVEKTVAPAECS
Kd [3]: 7050 nM | IC50 [7]: 54.2 nM | cell of the competition table (name and unit of the value not given) [8]: 0.693 | % Positive for HER4 [6]: 8.73% | Kd (FcgRIIA (R167) (human)): 243 nM | Kd (FcgRIIA (H167) (human)): 222 nM | Kd (FcRn (human)): 11.5 nM | Kd (FcgRIIB (human)): 1440 nM | Kd (moFcRn (mouse)): 6.69 nM

B3: anti-HER3 clone 10D1_c90 IgG1 (antibody, V domains shown)
VH: QVQLQESGPGLVKPSQTLFLTCTVSGYSITSGYSWHWIRQHPGKGLEWIGSIRYSGGTDYNPSLKSLVTISVDTSKNQFSLKLSSVTAADTAVYYCARMTTAPWYPFDYWGQGTTVTVSS
VL: DIQMTQSPSSVSASVGDRVTFTCKASQIVGSNVAWYQQKPGKAPEPLIYSASYLYSSVPSRFSGSGSGTEFTMTISSLEPEDFATYYCQQYTTHPLTFGPGTKVEIKR
notes: Humanised 10D1 variant, human IgG1 / kappa
EC50 (read off the curve) [11]: ~6 ng/mL
